From article PMC6477676, “Staufen2-mediated RNA recognition and localization requires combinatorial action of multiple domains” come the findings set out here.

Data set [1] addresses T1, mStau2 dsRBD1-2 F40A F157A (Mus musculus, UniProt Q8CJ67 8-181, F40A;F157A).
T1 sequence: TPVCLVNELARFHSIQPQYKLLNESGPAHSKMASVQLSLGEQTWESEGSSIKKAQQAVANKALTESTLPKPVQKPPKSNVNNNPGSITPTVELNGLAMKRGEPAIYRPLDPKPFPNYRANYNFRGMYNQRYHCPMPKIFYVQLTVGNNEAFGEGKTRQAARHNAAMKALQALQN
The experiment in a line: SPR; no fit; SPR: HBS-EP (10 mM HEPES pH 7.4, 150 mM NaCl, 3 mM EDTA, 0.005% P20); EMSA: 5 nM RNA, protein buffer (40 mM Bis-Tris pH 7, 150 mM NaCl, 2 mM DTT presumed), 4% glycerol, 30 ug/mL yeast tRNA, RT; NMR: 150 mM NaCl, 20 mM Na phosphate pH 7.0, 5 mM DTT, 298 K. To be noted: protein: recombinant, label: 5' 32P (EMSA), biotin (SPR).

Data set [2] concerns the target T2, mStau2 dsRBD1-2 F40A H169A (Mus musculus, UniProt Q8CJ67 8-181, F40A;H169A).
T2 sequence: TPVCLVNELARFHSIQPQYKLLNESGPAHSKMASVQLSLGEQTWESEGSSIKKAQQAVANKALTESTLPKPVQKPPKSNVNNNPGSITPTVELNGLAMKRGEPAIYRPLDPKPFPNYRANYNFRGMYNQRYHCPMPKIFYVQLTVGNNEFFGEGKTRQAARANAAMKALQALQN
Described as above. To be noted: protein: recombinant, label: 5' 32P (EMSA), biotin (SPR). A general note: In EMSA bound probe runs differently from free probe, usually more slowly.

A further data set has as its target T3, mStau2 dsRBD2 (Mus musculus, UniProt Q8CJ67 95-181).
T3 sequence: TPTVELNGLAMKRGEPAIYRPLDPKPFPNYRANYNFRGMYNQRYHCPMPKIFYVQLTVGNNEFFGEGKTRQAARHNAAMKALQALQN
Put plainly: SPR; Hill n 1.3; SPR: HBS-EP (10 mM HEPES pH 7.4, 150 mM NaCl, 3 mM EDTA, 0.005% P20); EMSA: 5 nM RNA, protein buffer (40 mM Bis-Tris pH 7, 150 mM NaCl, 2 mM DTT presumed), 4% glycerol, 30 ug/mL yeast tRNA, RT; NMR: 150 mM NaCl, 20 mM Na phosphate pH 7.0, 5 mM DTT, 298 K. To be noted: protein: recombinant; label: 5' 32P (EMSA); biotin (SPR); hairpin, 18 bp stem.

Another data set has as its target T4, mStau2 dsRBD1-2 E99A (Mus musculus, UniProt Q8CJ67 8-181, E99A).
T4 sequence: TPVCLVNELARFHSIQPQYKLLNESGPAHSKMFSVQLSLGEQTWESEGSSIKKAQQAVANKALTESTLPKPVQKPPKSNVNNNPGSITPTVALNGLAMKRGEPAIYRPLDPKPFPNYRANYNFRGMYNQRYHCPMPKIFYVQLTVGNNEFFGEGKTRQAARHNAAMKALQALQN
The experiment in a line: SPR; Hill n 1.5; SPR: HBS-EP (10 mM HEPES pH 7.4, 150 mM NaCl, 3 mM EDTA, 0.005% P20); EMSA: 5 nM RNA, protein buffer (40 mM Bis-Tris pH 7, 150 mM NaCl, 2 mM DTT presumed), 4% glycerol, 30 ug/mL yeast tRNA, RT; NMR: 150 mM NaCl, 20 mM Na phosphate pH 7.0, 5 mM DTT, 298 K. To be noted: protein: recombinant; label: 5' 32P (EMSA); biotin (SPR); hairpin, 18 bp stem. On the technique in general: In SPR one partner is held on a chip, and binding of the other changes the refractive index at the surface.

Data set [3] addresses T5, mStau2 dsRBD1-4 F40A H169A (Mus musculus, UniProt Q8CJ67 8-375, F40A;H169A).
T5 sequence: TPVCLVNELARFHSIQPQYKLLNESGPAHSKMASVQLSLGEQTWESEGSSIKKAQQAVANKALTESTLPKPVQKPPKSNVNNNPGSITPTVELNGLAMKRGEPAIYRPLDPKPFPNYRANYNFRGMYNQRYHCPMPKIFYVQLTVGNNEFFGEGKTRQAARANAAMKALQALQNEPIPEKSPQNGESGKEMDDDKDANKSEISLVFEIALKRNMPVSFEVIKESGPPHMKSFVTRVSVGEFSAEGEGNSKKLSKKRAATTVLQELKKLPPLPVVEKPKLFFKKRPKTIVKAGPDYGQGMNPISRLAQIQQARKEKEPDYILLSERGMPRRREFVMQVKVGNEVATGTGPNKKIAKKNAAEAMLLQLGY
The experiment in a line: SPR; two-site, transient; KDs resemble dsRBD3-4; SPR: HBS-EP (10 mM HEPES pH 7.4, 150 mM NaCl, 3 mM EDTA, 0.005% P20); EMSA: 5 nM RNA, protein buffer (40 mM Bis-Tris pH 7, 150 mM NaCl, 2 mM DTT presumed), 4% glycerol, 30 ug/mL yeast tRNA, RT; NMR: 150 mM NaCl, 20 mM Na phosphate pH 7.0, 5 mM DTT, 298 K. To be noted: protein: recombinant, label: 5' 32P (EMSA), biotin (SPR).

Another data set has as its target T6, mStau2 dsRBD1-4 (Mus musculus, UniProt Q8CJ67 8-375).
T6 sequence: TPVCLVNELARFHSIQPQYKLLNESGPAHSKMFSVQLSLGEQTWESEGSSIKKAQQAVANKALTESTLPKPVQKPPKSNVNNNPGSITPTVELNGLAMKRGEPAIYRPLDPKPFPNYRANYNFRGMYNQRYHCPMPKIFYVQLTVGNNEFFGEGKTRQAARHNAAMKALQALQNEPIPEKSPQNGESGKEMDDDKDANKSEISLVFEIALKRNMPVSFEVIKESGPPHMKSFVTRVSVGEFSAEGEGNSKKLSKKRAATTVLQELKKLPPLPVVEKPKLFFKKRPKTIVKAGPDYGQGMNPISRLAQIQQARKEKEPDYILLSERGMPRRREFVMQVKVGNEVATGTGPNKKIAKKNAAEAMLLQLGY
Put plainly: SPR; Hill n 1.7; text says 330 nM; SPR: HBS-EP (10 mM HEPES pH 7.4, 150 mM NaCl, 3 mM EDTA, 0.005% P20); EMSA: 5 nM RNA, protein buffer (40 mM Bis-Tris pH 7, 150 mM NaCl, 2 mM DTT presumed), 4% glycerol, 30 ug/mL yeast tRNA, RT; NMR: 150 mM NaCl, 20 mM Na phosphate pH 7.0, 5 mM DTT, 298 K. To be noted: protein: recombinant; tags: HisSUMO removed; label: 5' 32P (EMSA); biotin (SPR); imperfect hairpin, 26 bp with two bulges.

[4] abbreviates: imperfect hairpin, 26 bp with two bulges.

Turning to GGUAUAUACAUGCACAUGCAAUUUGUGUAUGUGUAUGUAUAUA (structured_RNA) [SRS2+5], the binding result in data set [1] (hairpin, 18 bp stem) was “no binding”; in data set [2] (hairpin, 18 bp stem), “no binding”; in data set [3] (hairpin, 18 bp stem), “binds”. Moreover, the Kd with mStau2 dsRBD2 was 650 ± 247 nM; in the data set with mStau2 dsRBD1-2 E99A, 635 ± 308 nM.

B1: SRS* (SRS3) (structured_RNA)
RNA: GGUAUGUGUGAAUGUGCAUGAAUAUAUAUAUAUAUGCAUAUAUAUAUUUGUAUAUGUUCACACAUG
On to B1, for which the binding result in data set [1] (setting [4]) is “no binding”; in data set [2] (setting [4]) it was “no binding”; in data set [3] (setting [4]) it was “binds”. Moreover, the Kd with mStau2 dsRBD1-4 is 287 ± 127 nM.

The Kd is a measure of binding affinity in units of concentration.
